Source: the RNAGym collection of RNA variant scans (doi:10.7554/elife.80360)

B1: CPEB3 Ribozyme (parent)
chain: GGGGGCCACAGCAGAAGCGUUCACGUCGCGGCCCCUGUCAGAUUCUGGUGAAUCUGCGAAUUCUGCUGU

Variants of: B1
Assay: self-cleavage, relative activity (ratio to wild type); higher = more cleavage; co-transcriptional
With GGGGGCCACAGCAGAAAAGUUCACGUCGCGGCCCCUGUCAGAUUCUGGUGAAUCUGCGAAUUCUGCUGU [G17A C18A] the self-cleavage was 0.116.
Work on GGGGGCCACAGCAGAAAGGUUCACGUCGCGGCCCCUGUCAGAUUCUGGUGAAUCUGCGAAUUCUGCUGU [G17A C18G] yielded a self-cleavage of 0.147.
GGGGGCCACAGCAGAUGCGUUCACGUCGCGGCCCCUGUCAGAUUCUGGUGAAUCUGCGAAUUCUGCUCU [A16U G68C] showed a self-cleavage of 0.875.
In the case of GGGGGCCACAGCAGAUGCGUUCACGUCGCGGCCCCUGUCAGAUUCUGGUGAAUCUGCGAAUUCUGCUUU [A16U G68U], the self-cleavage is reported as 0.948.
With GGGGGCCACAGCAGAAACGUUCACGUCGUGGCCCCUGUCAGAUUCUGGUGAAUCUGCGAAUUCUGCUGU [G17A C29U] the self-cleavage was 0.858.
With GGGGGCCACAGCAGAAACGUUCACGUCGAGGCCCCUGUCAGAUUCUGGUGAAUCUGCGAAUUCUGCUGU [G17A C29A] the self-cleavage was 0.572.
GGGGGCCACAGCAGAUGCGUUCACGUCGCGGCCCCUGUCAGAUUCUGGUUAAUCUGCGAAUUCUGCUGU [A16U G50U] gave a self-cleavage of 0.862.
GGGGGCCACAGCAGAAACGUUCACGUCGCGGCCUCUGUCAGAUUCUGGUGAAUCUGCGAAUUCUGCUGU [G17A C34U] showed a self-cleavage of 0.524.
GGGGGCCACAGCAGAAACGUUCACGUCGCGGCCACUGUCAGAUUCUGGUGAAUCUGCGAAUUCUGCUGU [G17A C34A] gave a self-cleavage of 0.2.
GGGGGCCACAGCAGAUGCGUUCACGUCGCGGCCCCAGUCAGAUUCUGGUGAAUCUGCGAAUUCUGCUGU [A16U U36A] showed a self-cleavage of 0.166.
In the case of GGGGGCCACAGCAGAUGCGUUCACGUCGCGGCCCCCGUCAGAUUCUGGUGAAUCUGCGAAUUCUGCUGU [A16U U36C], the self-cleavage is reported as 0.438.
In the case of GGGGGCCACAGCAGAUGCGUUCACGUCGCGGCCCCUGUCAGAUUCUGGCGAAUCUGCGAAUUCUGCUGU [A16U U49C], the self-cleavage is reported as 0.834.
Variant GGGGGCCACAGCAGAUGCGUUCACGUCGCGGCCCCUGUCAGAUUCUGGAGAAUCUGCGAAUUCUGCUGU [A16U U49A] has a self-cleavage of 0.96.
GGGGGCCACAGCAGAUGCGUUCACGUCGCGGCCCCUGUCAGAUUCUGGGGAAUCUGCGAAUUCUGCUGU [A16U U49G] showed a self-cleavage of 0.817.
In the case of GGGGGCCACAGCAGAAACGUUCACGUCGCGGCCCCUGUAAGAUUCUGGUGAAUCUGCGAAUUCUGCUGU [G17A C39A], the self-cleavage is reported as 0.201.
GGGGGCCACAGCAGAAACGUUCACGUCGCGGCCCCUGUGAGAUUCUGGUGAAUCUGCGAAUUCUGCUGU [G17A C39G] showed a self-cleavage of 0.216.
For GGGGGCCACAGCAGAAACGUUCACGUCGCGGGCCCUGUCAGAUUCUGGUGAAUCUGCGAAUUCUGCUGU [G17A C32G], the self-cleavage was 0.13.
For GGGGGCCACAGCAGAAACGUUCACGUCGCGGUCCCUGUCAGAUUCUGGUGAAUCUGCGAAUUCUGCUGU [G17A C32U], the self-cleavage was 0.625.
For GGGGGCCACAGCAGAUGCGUUCACGUCGCGGCCCCUGUCAGAUUCUGGUGAAUCUGCGAAUUCUACUGU [A16U G65A], the self-cleavage was 0.442.
With GGGGGCCACAGCAGAUGCGUUCACGUCGCGGCCCCUGUCACAUUCUGGUGAAUCUGCGAAUUCUGCUGU [A16U G41C] the self-cleavage was 0.366.
Variant GGGGGCCACAGCAGAUGCGUUCACGUCGCGGCCCCUGACAGAUUCUGGUGAAUCUGCGAAUUCUGCUGU [A16U U38A] has a self-cleavage of 0.424.
GGGGGCCACAGCAGAUGCGUUCACGUCGCGGCCCCUGCCAGAUUCUGGUGAAUCUGCGAAUUCUGCUGU [A16U U38C] gave a self-cleavage of 0.625.
Variant GGGGGCCACAGCAGAUGCGUUCACGUCGCGGCCCCUGUCAGAUUCUAGUGAAUCUGCGAAUUCUGCUGU [A16U G47A] has a self-cleavage of 0.893.
GGGGGCCACAGCAGAUGCGCUCACGUCGCGGCCCCUGUCAGAUUCUGGUGAAUCUGCGAAUUCUGCUGU [A16U U20C] gave a self-cleavage of 0.196.
Work on GGGGGCCACAGCAGAUGCGAUCACGUCGCGGCCCCUGUCAGAUUCUGGUGAAUCUGCGAAUUCUGCUGU [A16U U20A] yielded a self-cleavage of 0.124.
GGGGGCCACAGCAGAAACGUUCACGUCGCGGCCCAUGUCAGAUUCUGGUGAAUCUGCGAAUUCUGCUGU [G17A C35A] gave a self-cleavage of 0.136.
GGGGGCCACAGCAGAAACGUUCACGUCGCGGCCCGUGUCAGAUUCUGGUGAAUCUGCGAAUUCUGCUGU [G17A C35G] gave a self-cleavage of 0.179.
For GGGGGCCACAGCAGAUGCGUUCACGUCGCGGCCCCUGUCAGAUACUGGUGAAUCUGCGAAUUCUGCUGU [A16U U44A], the self-cleavage was 0.729.
Variant GGGGGCCACAGCAGAUGCGUUCACGUCGCGGCCCCUGUCAGAUCCUGGUGAAUCUGCGAAUUCUGCUGU [A16U U44C] has a self-cleavage of 0.703.
For GGGGGCCACAGCAGAUGCGUUCACGUCGCGGCCCCUUUCAGAUUCUGGUGAAUCUGCGAAUUCUGCUGU [A16U G37U], the self-cleavage was 0.173.
With GGGGGCCACAGCAGAUGCGUUCACGUCGCGGCCCCUAUCAGAUUCUGGUGAAUCUGCGAAUUCUGCUGU [A16U G37A] the self-cleavage was 0.154.
Work on GGGGGCCACAGCAGAUGCGUUCACGUCGCGGCCCCUGUCAGAUUCUGGUGAAUCUUCGAAUUCUGCUGU [A16U G56U] yielded a self-cleavage of 0.624.
With GGGGGCCACAGCAGAUGCGUUCACGUCGCGGCCCCUGUCAGAUUCUGGUGAAUCUCCGAAUUCUGCUGU [A16U G56C] the self-cleavage was 0.82.
Work on GGGGGCCACAGCAGAUGCGUUCACGUCGCGGCCCCUGUCAGAUUCUGGUGAAUCUACGAAUUCUGCUGU [A16U G56A] yielded a self-cleavage of 0.616.
In the case of GGGGGCCACAGCAGAUGCGUUCACGUCGCGGCCCCUGUCAGAUUCUGGUGAAUCUGCGAAUUCUGCAGU [A16U U67A], the self-cleavage is reported as 0.877.
In the case of GGGGGCCACAGCAGAUGCGUUCACGUCGCGGCCCCUGUCAGAUUCUGGUGAAUCUGCGAAUUCUGCGGU [A16U U67G], the self-cleavage is reported as 0.9.
With GGGGGCCACAGCAGAAACGUUCUCGUCGCGGCCCCUGUCAGAUUCUGGUGAAUCUGCGAAUUCUGCUGU [G17A A23U] the self-cleavage was 0.585.
For GGGGGCCACAGCAGAAACGUUCCCGUCGCGGCCCCUGUCAGAUUCUGGUGAAUCUGCGAAUUCUGCUGU [G17A A23C], the self-cleavage was 0.483.
In the case of GGGGGCCACAGCAGAAACGUUCGCGUCGCGGCCCCUGUCAGAUUCUGGUGAAUCUGCGAAUUCUGCUGU [G17A A23G], the self-cleavage is reported as 0.243.
